Reference: patent EP1783227A1
Where “and” joins values, the source holds several entries; their conditions need not be identical. Equal values may be shown once.

Biological target: human CCR2 (endogenous, on THP-1 cells, THP-1 cell membranes, PBMC and whole blood leukocytes) (human) (UniProt P41597)
Assay: competition with 0.1 nM [125I]MCP-1 on fresh PBMC (500,000 cells), filtration and scintillation counting

UniProt P41597, sequence (P41597 whole entry): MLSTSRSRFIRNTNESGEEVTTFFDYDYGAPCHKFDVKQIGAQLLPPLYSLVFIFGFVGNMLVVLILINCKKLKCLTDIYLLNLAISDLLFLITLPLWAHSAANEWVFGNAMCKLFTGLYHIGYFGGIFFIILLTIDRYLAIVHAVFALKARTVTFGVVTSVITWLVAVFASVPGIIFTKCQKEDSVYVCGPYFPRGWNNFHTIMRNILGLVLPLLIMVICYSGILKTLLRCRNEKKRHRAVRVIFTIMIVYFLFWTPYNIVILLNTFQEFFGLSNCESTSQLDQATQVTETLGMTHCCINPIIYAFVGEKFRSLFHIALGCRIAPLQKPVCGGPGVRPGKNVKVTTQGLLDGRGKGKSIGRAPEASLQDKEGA

- IC50: 0.2 nM and 0.04 µg/mL
Substance: murine monoclonal antibody LS132.1D9
